Series [1] deals with T1, CytR DBD (Escherichia coli, UniProt P0ACN7 1-67).
T1 sequence: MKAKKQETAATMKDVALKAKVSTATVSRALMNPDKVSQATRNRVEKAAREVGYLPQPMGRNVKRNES
Briefly: fluorescence anisotropy.

Series [2] deals with T1, CytR DBD. Briefly: fluorescence anisotropy. The source holds these as a separate data set. A general note: Fluorescence polarisation rises when a labelled molecule tumbles more slowly, as on binding a larger partner.
Series [3] addresses T1, CytR DBD. Briefly: fluorescence anisotropy. The source holds these as a separate data set.
In series [4] the target is T1, CytR DBD. Briefly: NMR.

Like-named read-outs stand apart in the source and are kept apart here.

Data on four molecules can be found in doi:10.1101/2021.02.28.433298.

What is called Kd is the equilibrium constant for the complex coming apart.

B1: nonspecific 14 bp (dsDNA)
DNA 1: AGCATGCTGGGGAC
DNA 2: GTCCCCAGCATGCT
For B1, the Kd in series [1] worked out at 5.7 µM.

B2: udp left half-site (dsDNA)
DNA 1: ATTTATGCAACGCA
DNA 2: TGCGTTGCATAAAT
The molecule B2 gave an equilibrium dissociation constant (Kd) in series [2] of 9.6 ± 1.8 µM.

B3: nonspecific 30 bp (dsDNA)
DNA 1: GTACAGAACATGTCTAAGCATGCTGGGGAC
DNA 2: GTCCCCAGCATGCTTAGACATGTTCTGTAC
On to B3, for which, in series [3], binding was characterised by a dissociation constant (Kd) of 1.81 µM.

B4: udp full-site operator (CytO) (dsDNA)
DNA 1: GTAAATTTATGCAACGCATTTGCGTCATGGTG
DNA 2: CACCATGACGCAAATGCGTTGCATAAATTTAC
Turning to B4, the binding result in series [4] is recorded as “binds”.
